Test in all cases: cell-based or functional assay
The target in one assay is VEGF (UniProt P15692).
For assay [1], the target named is VEGF (used to stimulate HUVEC cells) (UniProt P15692).
The target of assay [2] is DII4-His (C-terminal His-tagged human DII4, amino acid 27-524) (human) (UniProt Q9NR61).
Chain of DII4-His (C-terminal His-tagged human DII4, amino acid 27-524) (human) (Q9NR61 25-522): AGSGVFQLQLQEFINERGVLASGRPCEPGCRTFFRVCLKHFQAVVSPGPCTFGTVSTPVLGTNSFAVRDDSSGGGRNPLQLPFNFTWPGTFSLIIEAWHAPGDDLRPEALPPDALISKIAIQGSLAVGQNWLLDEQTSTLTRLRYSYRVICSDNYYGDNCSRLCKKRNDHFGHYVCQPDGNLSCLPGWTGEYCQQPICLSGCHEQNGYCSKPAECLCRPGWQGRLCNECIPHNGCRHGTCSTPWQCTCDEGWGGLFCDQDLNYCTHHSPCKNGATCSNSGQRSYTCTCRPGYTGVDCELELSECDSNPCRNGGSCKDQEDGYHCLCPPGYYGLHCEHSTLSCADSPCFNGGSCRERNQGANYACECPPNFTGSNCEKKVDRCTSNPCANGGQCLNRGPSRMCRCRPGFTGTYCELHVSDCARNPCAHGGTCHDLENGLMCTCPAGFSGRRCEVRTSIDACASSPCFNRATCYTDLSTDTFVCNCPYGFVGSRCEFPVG

Chain of VEGF (P15692 other isoform, or with tags, fused parts or gaps limits assumed): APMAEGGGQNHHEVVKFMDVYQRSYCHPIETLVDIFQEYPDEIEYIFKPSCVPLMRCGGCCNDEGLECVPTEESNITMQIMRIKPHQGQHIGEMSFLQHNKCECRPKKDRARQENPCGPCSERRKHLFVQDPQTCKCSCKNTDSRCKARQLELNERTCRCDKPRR
Chain of VEGF (used to stimulate HUVEC cells) (P15692 other isoform, or with tags, fused parts or gaps limits assumed): as above

B1: VEGFBII23B04 (VHH, not shown: small tags and cut ends)
VHH: EVQLVESGGGLVQTGDSLRLSCEVSGRTFSSYSMGWFRQAQGKEREFVVAISKGGYKYDSVSLEGRFTISKDNAKNTVYLQINSLKPEDTAVYYCASSRAYGSSRLRLADTYEYWGQGTQVTVSS
In the assay with VEGF, B1 returned a % inhibition, VEGF HUVEC Erk phosphorylation assay, +HSA of 93%; a % inhibition, VEGF HUVEC Erk phosphorylation assay, -HSA of 91%; an IC50 (nM), VEGF HUVEC Erk phosphorylation assay, +HSA of 0.6 nM; an IC50 (nM), VEGF HUVEC Erk phosphorylation assay, -HSA of 0.69 nM.

B2: VEGFBII23A06 (VHH, not shown: small tags and cut ends)
VHH: EVQLVESGGGLVQPGDSLKLSCAFSGRTFSSYSMGWFRQAQGKEREFVVAISSGGFIYDAVSLEGRFTISRDNTKNTVYLQTPSLKPEDTAVYYCAASRAYGSSRLRLADTYDYWGQGTQVTVSS
Consider B2, for which, in assay [1], the % inhibition, VEGF HUVEC proliferation assay turned out to be 73% and the IC50, VEGF HUVEC proliferation assay is 4.29 nM.

B3: DLLBII129B05 (VHH, not shown: small tags and cut ends)
VHH: EVQLVESGGGLVQAGGSLRLSCAASGRTFSSYAMAWYRQAPGKEREYVAAIRWSGGTAYYADSVQGRFTISRDNAKNTVYLQMNSLKPEDTAVYYCANRAPDTRLAPYEYDHWGQGTQVTVSS
Consider B3, for which, in assay [2], the IC50 (nM), DII4-mediated HUVEC proliferation assay, +HSA turned out to be 3.52 nM and the IC50 (nM), DII4-mediated HUVEC proliferation assay, -HSA was determined as 2.32 nM.
